Data as given in the supplement of paper PMC12764529.
± gives the half width of the 95% confidence interval.

Legend:
[1] = folding stability dG unfold (combined trypsin and chymotrypsin); higher = more stable
Method in brief: (§1)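 Sequencing followed digestion of designed mini-proteins with trypsin and chymotrypsin, each at 11 concentrations in threefold dilutions together with a no-protease condition. The mini-proteins were under 80 residues, had no cysteine, sat in a PA-tagged cDNA display construct, and were kept only if AlphaFold2 dimer inter-PAE was above 15. From the counts, Bayesian fitting gave K50, and unfolding free energy was derived against a sequence-predicted unfolded-state K50 and a shared folded-state K50, per protease or combined.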

[2] = folding stability dG unfold from chymotrypsin proteolysis; higher = more stable
Method in brief: as §1

[3] = folding stability dG unfold from trypsin proteolysis; higher = more stable
Method in brief: as §1

Row | Sequence | folding stability dG unfold [1] [kcal/mol] | folding stability dG unfold [2] [kcal/mol] | folding stability dG unfold [3] [kcal/mol]
1 | SALLENGGIFISINLEWDPEYNWIRIKRFTIYWNGKVIATQPQWIPVPPPPPPPPPEREYNPNDPDNNKSAG [r14_571_TrROS] | 4.56 ± 0.16 | 5.06 ± 0.085 | 3.19 ± 0.19
2 | SAGGSAGGPLVFEADATGTAPDDKELVIERVLVVVDPVRGEAHLYARIPGTGEWRYLGTFDLKDSAGGSAGG [r6_329_TrMRF] | 3.21 ± 0.082 | 3.315 ± 0.023 | 2.91 ± 0.093
3 | SAGGSAGGSMEFVEIEIEKELETEVSPDGTTTTRYRVPDGSILVVTTTHPPDGVPTPTVTLVASAGGSAGGS [r20_240_JUSTAS] | 1.08 ± 0.045 | 0.944 ± 0.075 | 1.16 ± 0.021
4 | SAGATFKPGQTITVTVTVTVTVTNADGSTTTVTATVTVTLTVEPAPPLTFKTAEEAEAARKAGLSPEELSAG [r5_624_TrROS_Hall] | 1.84 ± 0.23 | 1.9 ± 0.076 | 1.35 ± 0.07
5 | SAGGSAGGSAKTVTLTIEITNEDGKKFTAKIEVTYDEETGEFTVRIEIFDKNGKLIAEFPLSAGGSAGGSAG [r3_154_TrROS_Hall] | 4.98 ± 0.2 | 5.1 ± 0.1 | 3.72 ± 0.17
6 | SAMILPKTVPKTITYPGSEEEARAVAEAEAARLKAQGNVTVDITFVKKSPEGGYTIEITITDYAPPELLSAG [r14_413_JUSTAS] | 0.861 ± 0.23 | 0.933 ± 0.28 | 0.77 ± 0.12
7 | SAGGSAEVERFEIPVTSEEELEKLIEELKKAPGVLSVEKTPDGTLVVTVPKGKSDIVEEAAKKAGLSAGGSA [r15_834_JUSTAS] | 2.97 ± 0.09 | 3.17 ± 0.11 | 2.7 ± 0.12
8 | SAGGSAGGSAGGKYKIKEIKVEEVDGKKYVKLVIYDKNGKPVKTIVMSLEELKKLPPELLSAGGSAGGSAGG [r7_263_TrROS_Hall] | 1.89 ± 0.22 | 2.37 ± 0.12 | 1.55 ± 0.041
9 | SAGGSAGGGPRAVPVGELELVLGDLVVRVRFFRNPESDSVSVRVEVRPLPPISAEELARLGEEGSAGGSAGG [r6_177_TrMRF] | 2.91 ± 0.15 | 3.52 ± 0.049 | 1.67 ± 0.062
10 | YMVFIRIEVEDPKNGEEKAEIPIPIPIPPGDLKNMPPEDREKMIEEAKYFAEELAEEKGNVKIKPEIQWFES [r1_115_TrROS] | -0.0293 ± 0.23 | -0.226 ± 0.66 | -0.246 ± 0.19
11 | SAGYEIVKEIAEELGFPVEIDRIEYDPDHGTIKFTARMRPKDGKKYRVQIMIHVPPENGNVDIELEYVPSAG [r5_929_TrROS] | 2.56 ± 0.2 | 2.6 ± 0.16 | 2.09 ± 0.074
12 | SAGGSAEKPVKIHLMYNPDYYYVRIRNNGGPQSFMFKPDMDIEEIANNFPPGIDEIEIHPMPPEAFSAGGSA [r15_1058_TrROS] | 0.421 ± 0.1 | 0.491 ± 0.099 | 0.251 ± 0.14
13 | SAGGSAGGSAGGSMTIIVKTEEEAKQLAERLKKELEELGLLENLKIEIKVIPEEDLPPESAGGSAGGSAGGS [r4_472_TrROS_Hall] | 2.09 ± 0.08 | 2.33 ± 0.052 | 1.29 ± 0.079
14 | SAPDVVVVPIKIPPGEMSPSDMIEMIEQAFDQFNWPITPDRIEKLVDKAMKNGDSIWAVIRYLREEGWLSAG [r14_364_TrROS] | 2.86 ± 0.076 | 3.022 ± 0.021 | 2.63 ± 0.049
15 | SAGGSAGGSAETVTITLKVKPGEKVKIVNKKTKKVFEATVKDGYLTITLPKEDITEIKIEKVSAGGSAGGSA [r18_170_TrROS_Hall] | 2.29 ± 0.09 | 2.47 ± 0.019 | 1.77 ± 0.05
16 | SAGGSAGGSMEIPANIPIEEFAALIKKKGNFEVKKVGPKTFVIVSKDNKKPLVVKFDAKPGLDSAGGSAGGS [r20_236_TrMRF] | 0.183 ± 0.076 | 0.261 ± 0.15 | -0.035 ± 0.064
17 | SAGMEFPANTTVELTLTLTFPVPLPGEGTGPVTLTYTLRLEVRPKPRIPLPDPALRELLERLGLSPDLLSAG [r5_624_TrMRF] | 4.43 ± 0.4 | 4.88 ± 0.13 | 3.88 ± 0.39
18 | SAGGSAGGSAGGPVIEIKVPSKEDALEAARKLLEELFGKKPEDMKITVEYNPEDKTIKIKSAGGSAGGSAGG [r7_387_TrROS_Hall] | 0.986 ± 0.087 | 1.28 ± 0.054 | 0.333 ± 0.063
19 | SVKTSSSMAPPDRIVLKITDPETDKVTTITVPLDLPEDEPVAVHDPEAPSERTVAEIKALAEAGKSVSGLSA [r9_250_JUSTAS] | -0.142 ± 0.18 | -0.55 ± 0.35 | -0.176 ± 0.16
20 | SAGGSAGGSTITFFFDNPEQIEKLIEELMDKNNVEVEVEPHPDNGMPMVTFTNPNNGKEITIMSAGGSAGGS [r12_635_TrROS] | 0.54 ± 0.21 | 0.497 ± 0.23 | 0.48 ± 0.057
21 | SAGPVLLELESPSGGRYRIALPPNVTEIRRVGDRFIIRLPDGFSLVIEVDEDEPPSTLNDIKILAVIPSAGG [r19_274_TrMRF] | 2.38 ± 0.043 | 2.41 ± 0.045 | 2.19 ± 0.03
